Results: patent US20170121416A1 (AbbVie / Abbott, published 2017)

What was measured:
[1] = molecular target: T1, Nectin-4 protein (R&D Systems) (UniProt Q96NY8 32-349); test: bridging ELISA: Nectin-4 coated, detection with biotinylated CD324 W2A and streptavidin-HRP
T1 construct: bought; coated on the plate of the bridging ELISA
T1 sequence (looked up): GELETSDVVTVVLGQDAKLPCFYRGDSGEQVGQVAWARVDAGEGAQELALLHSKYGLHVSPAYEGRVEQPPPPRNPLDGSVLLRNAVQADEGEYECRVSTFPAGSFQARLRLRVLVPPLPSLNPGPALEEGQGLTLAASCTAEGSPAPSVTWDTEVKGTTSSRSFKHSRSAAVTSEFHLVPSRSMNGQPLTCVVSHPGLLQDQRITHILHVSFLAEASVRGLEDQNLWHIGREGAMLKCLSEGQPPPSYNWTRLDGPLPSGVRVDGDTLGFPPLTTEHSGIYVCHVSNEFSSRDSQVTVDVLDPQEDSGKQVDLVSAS

[2] = molecular target: T2, human CD324 on cells (MCF7, BR22, NTX tumor cells, 293-hCD324) (human, UniProt P12830 155-882); test: cell-based or functional assay
T2 sequence: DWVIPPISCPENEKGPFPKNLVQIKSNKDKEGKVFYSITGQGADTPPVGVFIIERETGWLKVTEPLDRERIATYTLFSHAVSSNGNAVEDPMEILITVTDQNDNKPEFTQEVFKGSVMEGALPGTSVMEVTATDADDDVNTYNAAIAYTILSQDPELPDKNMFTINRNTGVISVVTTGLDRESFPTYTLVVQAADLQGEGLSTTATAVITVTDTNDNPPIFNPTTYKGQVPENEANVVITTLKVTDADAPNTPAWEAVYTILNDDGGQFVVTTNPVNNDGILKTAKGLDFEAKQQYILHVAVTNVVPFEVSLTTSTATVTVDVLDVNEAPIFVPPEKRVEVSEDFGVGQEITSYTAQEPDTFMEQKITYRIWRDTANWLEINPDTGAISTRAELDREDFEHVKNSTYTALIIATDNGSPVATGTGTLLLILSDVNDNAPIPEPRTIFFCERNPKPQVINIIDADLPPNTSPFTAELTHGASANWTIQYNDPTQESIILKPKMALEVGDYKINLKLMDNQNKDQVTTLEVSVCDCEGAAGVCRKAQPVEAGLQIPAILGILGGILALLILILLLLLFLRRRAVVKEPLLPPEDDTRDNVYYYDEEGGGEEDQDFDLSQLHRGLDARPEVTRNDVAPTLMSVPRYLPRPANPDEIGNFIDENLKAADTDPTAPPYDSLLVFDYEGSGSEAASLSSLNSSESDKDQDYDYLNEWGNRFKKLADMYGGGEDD

[3] = molecular target: T3, human CD324-His recombinant protein (Sino Biological, Inc.) (human, UniProt P12830 155-709); test: SPR (Biacore), similar experiments as for murine SC10.17; humanized antibody
T3 construct: bought soluble protein; The antigen of the Biacore experiment is only called human CD324 antigen; also called hCD324-His; human CD324 antigen; not shown: His tag
T3 sequence: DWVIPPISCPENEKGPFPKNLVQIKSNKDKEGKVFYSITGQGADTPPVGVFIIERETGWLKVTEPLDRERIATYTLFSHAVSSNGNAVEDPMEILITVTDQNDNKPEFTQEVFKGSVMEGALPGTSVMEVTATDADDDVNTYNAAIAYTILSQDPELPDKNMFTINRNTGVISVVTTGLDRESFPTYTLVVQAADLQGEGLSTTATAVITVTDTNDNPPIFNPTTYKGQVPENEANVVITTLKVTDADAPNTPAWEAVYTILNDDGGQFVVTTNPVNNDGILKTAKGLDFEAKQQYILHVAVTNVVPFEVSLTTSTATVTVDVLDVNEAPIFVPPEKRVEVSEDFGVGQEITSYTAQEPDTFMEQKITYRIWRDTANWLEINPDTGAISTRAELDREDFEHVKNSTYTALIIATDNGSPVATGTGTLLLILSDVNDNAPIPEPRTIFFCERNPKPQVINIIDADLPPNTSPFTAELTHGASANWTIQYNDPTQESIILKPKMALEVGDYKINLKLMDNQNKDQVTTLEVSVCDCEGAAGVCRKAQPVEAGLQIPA

[4] = molecular target: T2, human CD324 on cells (MCF7, BR22, NTX …); test: cell-based or functional assay; remark: listed apart in the source
[5] = molecular target: T4, Nectin-4 on cells (MCF-7, SKBR3) (UniProt Q96NY8 32-510, limits assumed); test: cell-based or functional assay
T4 sequence (looked up): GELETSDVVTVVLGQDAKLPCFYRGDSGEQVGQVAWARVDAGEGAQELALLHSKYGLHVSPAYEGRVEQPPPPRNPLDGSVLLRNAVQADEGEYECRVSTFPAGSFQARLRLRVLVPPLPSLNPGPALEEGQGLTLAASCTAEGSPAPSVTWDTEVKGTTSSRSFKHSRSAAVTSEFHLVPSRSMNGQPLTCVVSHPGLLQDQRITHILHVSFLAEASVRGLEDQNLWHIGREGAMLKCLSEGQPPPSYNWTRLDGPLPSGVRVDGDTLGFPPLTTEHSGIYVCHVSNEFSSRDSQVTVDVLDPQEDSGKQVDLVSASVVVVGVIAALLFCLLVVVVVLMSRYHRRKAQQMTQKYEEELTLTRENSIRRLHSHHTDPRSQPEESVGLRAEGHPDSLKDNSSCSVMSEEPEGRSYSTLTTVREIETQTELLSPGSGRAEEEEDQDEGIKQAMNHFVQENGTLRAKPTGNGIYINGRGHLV

[6] = molecular target: T2, human CD324 on cells (MCF7, BR22, NTX …); test: cell-based or functional assay; remark: listed apart in the source

binding result [1]: no binding | Kd [3]: 3800 pM
B1: hSC10.17 (antibody, V domains shown)
VH: EVQLVESGGGLVQPGGSLRLSCAASGFTFSSYGMHWVRQAPGKGLEWVAYITTRSSTIYYADSVKGRFTISRDNAKNSLYLQMNSLRAEDTAVYYCTREPLTGYYAMDYWGQGTSVTVSS
VL: DVVMTQSPLSLPVTLGQPASISCRSSQSIVHSDGNTYLEWYQQRPGQSPRRLIYKVSNRFSGVPDRFSGSGSGTDFTLKISRVEAEDVGVYYCFQGSHAPWTFGGGTKVEIK
notes: humanized (CDR-grafted) SC10.17; also called humanized SC10.17 mAb; hSC10.17 IgG
EC50 (MCF7, Fab-saporin killing) [2]: 4.44 pM | EC50 of killing of MCF7 cells, anti-human Fab-saporin assay [4]: 4.4 pM | IC50 on SKBR3 (pM), in vitro killing with anti-human IgG Fab-saporin [5]: > 1000 pM | IC50 on 293-hCD324 (pM), in vitro killing with anti-human IgG Fab-saporin [6]: 0.27 pM | IC50 on MCF-7 (pM), in vitro killing with anti-human IgG Fab-saporin [6]: 3.1 pM
